Reference: CN114426577A (CHINESE DISEASE PREVENTION AND CONTROL CENTER FOR …, dated 2022)

Experiments:
[1] = target: SARS-Cov-2 Omicron变异株的生物素化RBD(South Africa/CERI-KRISP-K032195/2021) (SARS-CoV-2 Omicron variant, UniProt P0DTC2 319-541)
[2] = target: SARS-CoV-2 S蛋白 (Delta变异株, 假病毒) (SARS-CoV-2 Delta variant, UniProt P0DTC2 14-1273); assay: cell-based or functional assay
[3] = target: SARS-CoV-2 S蛋白 (Omicron变异株, 假病毒) (SARS-CoV-2 Omicron variant, UniProt P0DTC2 14-1273); assay: cell-based or functional assay

| Binder | Kd [1] [pM] | 假病毒中和能力(IC50) [2] [µg/mL] | 假病毒中和能力(IC50) [3] [µg/mL] |
| --- | --- | --- | --- |
| LHC11 (antibody, V domains shown) VH: EVQLVESGGGLIQPGGSLKLSCAATEIIVSRNYMTWVRQAPGKGLEWVSIIYPGGSSFYAESVKGRFTISRDEPKNTLFLQMNSLRVEDTAVYYCARGYGDYYFDFWGQGTLVTVSS VL: EIVLTQSPVTLSLSPGERATLSCRASQSVSSSYLAWYQQKPGQAPRLLIYGASSRATGIPDRFSGSGSGTDFTLTISRLEPEDFAVYYCQQWLTFGGGTKVEIKV | 960 | 0.027 | 0.024 |
| SWB8 (antibody, V domains shown) VH: EVQLVESGGGLVQPGGSLRLSCAASGFTIRSYEMNWVRQAPGKGLEWVSYISSSGTTIYYADSVKGRFTISRDTAKNSLYLQMNSLRAEDTAVYYCAREGDYPSAEYFHHWGQGTLVTVSS VL: DIVMTQSSVSLAVSLGERATINCKSSQSVLYSSTNRSYLAWYQQKPGQSPKLLIYWASTRESGVPDRFSGSGSGTDFTLTISSLQAEDVAVYYCQQYYSTRRTFGQGTKLEIKR | < 1 | 0.018 | 0.032 |
| LHD2 (antibody, V domains shown) VH: QMQLVQSGPEVKKPGTSLKVSCKASGFAFTTSAVQWVRQARGQPLEWIGWIAVGSGKADYAQRFQERVTISRDMSTTTAYMELSSLSSEDTAVYFCAAPFCTRTTCLDGFDIWGQGTMVTVSS VL: EIVLTQSPVTLSLSPGERATLSCRAGQSVSRNYLGWYQQKPGQAPRLLIYAASSRATGIPDRFSGRGSGTDFTLTISRLEPEDFAVYYCQQYGTSPWTFGQGTKVEIKV | < 1 | 0.005 | 0.045 |
| LHD7 (antibody, V domains shown) VH: QMQLVQSGPEVKKPGTSVKVSCKASGFTFITAAVQWVRQARGQRLEWIGWIAVGSGKTDYAQKFQERVTITRDISTSTAYMEVKSLRSEDTALYYCAAPQCNRTTCLDGFDIWGQGTKVIVSS VL: EIVLTQSPVTLSLSPGERATLSCRASQSVSRSYLGWYQQKPGQAPRLLIYGASSRATGIPDRFRGSGSGTDFTLTISRLEPEDFAVYYCQQYGTSPWTFGQGTKVEIKV | < 1 | 0.008 | 0.025 |
